For data set [1], the system named is HeLa Kyoto. The data set can be described thus: melting temperature (median over replicates), in situ; higher = more thermally stable.
The subject of data set [2] is HeLa Kyoto. Description: thermal stability score vs G1/S (z-score of summed log2 fold changes over temperatures); higher = more thermally stable than in G1/S.
In data set [3] the test system is HeLa Kyoto. Description: solubility in G1/S (NP-40 vs SDS abundance) (log2 ratio); higher = more soluble. The note with it: cell cycle stage: G1/S.
Data set [4] deals with HeLa Kyoto. Description: solubility change mitosis vs G1/S (difference of NP-40 vs SDS log2 ratios) (log2 ratio difference); higher = more soluble in mitosis.
The mark [5] stands for this setting: cell cycle stage: early G1 (4.5 h after nocodazole release).
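Throughout, for melting temperature (median over replicates), in situ: HeLa Kyoto cells synchronized by double thymidine or nocodazole block, proteins quantified by TMT10plex mass spectrometry, three independent biological replicates.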
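Throughout, for solubility change mitosis vs G1/S (difference of NP-40 vs SDS log2 ratios): synchronized HeLa Kyoto cells (double thymidine block for G1/S, nocodazole release for mitosis), protein amounts in NP-40 versus SDS lysates quantified by mass spectrometry, three biological replicates.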
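Throughout, for solubility in G1/S (NP-40 vs SDS abundance): HeLa Kyoto cells arrested at G1/S by double thymidine block, proteins quantified by TMT10plex mass spectrometry in mild NP-40 versus SDS extracts, three biological replicates.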
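Throughout, for thermal stability score vs G1/S (z-score of summed log2 fold changes over temperatures): synchronized HeLa Kyoto cells, proteins quantified by TMT10plex mass spectrometry, three biological replicates, mitosis taken 0.5 h after nocodazole release, G1/S directly after double thymidine block.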

Turning to “MRRQWGSAMRAAEQAGCMVSASRAGQPEAGPWSCSGVILSRSPGLVLCHGGIFVPFLRAGSEVLTAAGAVFLPGDSCRDDLRLHVQWAPTAAGPGGGAERGRPGLCTPQCASLEPGPPAPSRGRPLQPRLPAELLLLLSCPAFWAHFARLFGDEAAEQWRFSSAARDDEVSEDEEADQLRALGWFALLGVRLGQEEVEEERGPAMAVSPLGAVPKGAPLLVCGSPFGAFCPDIFLNTLSCGVLSNVAGPLLLTDARCLPGTEGGGVFTARPAGALVALVVAPLCWKAGEWVGFTLLCAAAPLFRAARDALHRLPHSTAALAALLPPEVGVPWGLPLRDSGPLWAAAAVLVECGTVWGSGVAVAPRLVVTCRHVSPREAARVLVRSTTPKSVAIWGRVVFATQETCPYDIAVVSLEEDLDDVPIPVPAEHFHEGEAVSVVGFGVFGQSCGPSVTSGILSAVVQVNGTPVMLQTTCAVHSGSSGGPLFSNHSGNLLGIITSNTRDNNTGATYPHLNFSIPITVLQPALQQYSQTQDLGGLRELDRAAEPVRVVWRLQRPLAEAPRSKL [TYSND1]”, the melting temperature in the data set with HeLa Kyoto [1] (cell cycle stage: G1/S) turned out to be 55.1 °C; in the data set with HeLa Kyoto [1] (cell cycle stage: mitosis), 54 °C. Besides, the thermal stability score in the data set with HeLa Kyoto [2] (setting [5]) is -2.49; with HeLa Kyoto [2] (cell cycle stage: mitosis), -2.64. For the same sequence, the “solubility in G1/S (log2)” value with HeLa Kyoto [3] was -0.163. The “solubility change mitosis (log2)” value in the data set with HeLa Kyoto [4] was 0.0273.
Regarding “MGDMKTPDFDDLLAAFDIPDIDANEAIHSGPEENEGPGGPGKPEPGVGSESEDTAAASAGDGPGVPAQASDHGLPPPDISVVSVIVKNTVCPEQSEALAGGSAGDGAQAAGVTKEGPVGPHRMQNGFGSPEPSLPGTPHSPAPPSGGTWKEKGMEGKTPLDLFAHFGPEPGDHSDPLPPSAPSPTREGALTPPPFPSSFELAQENGPGMQPPVSSPPLGALKQESCSPHHPQVLAQQGSGSSPKATDIPASASPPPVAGVPFFKQSPGHQSPLASPKVPVCQPLKEEDDDEGPVDKSSPGSPQSPSSGAEAADEDSNDSPASSSSRPLKVRIKTIKTSCGNITRTVTQVPSDPDPPAPLAEGAFLAEASLLKLSPATPTSEGPKVVSVQLGDGTRLKGTVLPVATIQNASTAMLMAASVARKAVVLPGGTATSPKMIAKNVLGLVPQALPKADGRAGLGTGGQKVNGASVVMVQPSKTATGPSTGGGTVISRTQSSLVEAFNKILNSKNLLPAYRPNLSPPAEAGLALPPTGYRCLECGDAFSLEKSLARHYDRRSMRIEVTCNHCARRLVFFNKCSLLLHAREHKDKGLVMQCSHLVMRPVALDQMVGQPDITPLLPVAVPPVSGPLALPALGKGEGAITSSAITTVAAEAPVLPLSTEPPAAPATSAYTCFRCLECKEQCRDKAGMAAHFQQLGPPAPGATSNVCPTCPMMLPNRCSFSAHQRMHKNRPPHVCPECGGNFLQANFQTHLREACLHVSRRVGYRCPSCSVVFGGVNSIKSHIQTSHCEVFHKCPICPMAFKSGPSAHAHLYSQHPSFQTQQAKLIYKCAMCDTVFTHKPLLSSHFDQHLLPQRVSVFKCPSCPLLFAQKRTMLEHLKNTHQSGRLEETAGKGAGGALLTPKTEPEELAVSQGGAAPATEESSSSSEEEEVPSSPEPPRPAKRPRRELGSKGLKGGGGGPGGWTCGLCHSWFPERDEYVAHMKKEHGKSVKKFPCRLCERSFCSAPSLRRHVRVNHEGIKRVYPCRYCTEGKRTFSSRLILEKHVQVRHGLQLGAQSPGRGTTLARGSSARAQGPGRKRRQSSDSCSEEPDSTTPPAKSPRGGPGSGGHGPLRYRSSSSTEQSLMMGLRVEDGAQQCLDCGLCFASPGSLSRHRFISHKKRRGVGKASALGLGDGEEEAPPSRSDPDGGDSPLPASGGPLTCKVCGKSCDSPLNLKTHFRTHGMAFIRARQGAVGDN [ZNF687]”, the figures for the melting temperature in the data set on HeLa Kyoto [1] (cell cycle stage: G1/S) and in the data set with HeLa Kyoto [1] (cell cycle stage: mitosis) were 49 °C and 50.3 °C, respectively. The thermal stability score in the data set with HeLa Kyoto [2] (setting [5]) came to 0.612; in the data set with HeLa Kyoto [2] (cell cycle stage: mitosis) it was 1.77. In addition, the “solubility in G1/S (log2)” value in the data set on HeLa Kyoto [3] is -0.224. Also, the “solubility change mitosis (log2)” value with HeLa Kyoto [4] turned out to be 0.08.
As to “MFRLNSLSALAELAVGSRWYHGGSQPIQIRRRLMMVAFLGASAVTASTGLLWKRAHAESPPCVDNLKSDIGDKGKNKDEGDVCNHEKKTADLAPHPEEKKKKRSGFRDRKVMEYENRIRAYSTPDKIFRYFATLKVISEPGEAEVFMTPEDFVRSITPNEKQPEHLGLDQYIIKRFDGKKISQEREKFADEGSIFYTLGECGLISFSDYIFLTTVLSTPQRNFEIAFKMFDLNGDGEVDMEEFEQVQSIIRSQTSMGMRHRDRPTTGNTLKSGLCSALTTYFFGADLKGKLTIKNFLEFQRKLQHDVLKLEFERHDPVDGRITERQFGGMLLAYSGVQSKKLTAMQRQLKKHFKEGKGLTFQEVENFFTFLKNINDVDTALSFYHMAGASLDKVTMQQVARTVAKVELSDHVCDVVFALFDCDGNGELSNKEFVSIMKQRLMRGLEKPKDMGFTRLMQAMWKCAQETAWDFALPKQ [MICU1]”, the melting temperature in the data set on HeLa Kyoto [1] (cell cycle stage: G1/S) is 52.2 °C; in the data set with HeLa Kyoto [1] (cell cycle stage: mitosis), 51.3 °C. Moreover, the thermal stability score with HeLa Kyoto [2] (setting [5]) turned out to be 1.14; in the data set on HeLa Kyoto [2] (cell cycle stage: mitosis), 1.13. Moreover, in the data set with HeLa Kyoto [3], the “solubility in G1/S (log2)” value is -0.299. Further, the “solubility change mitosis (log2)” value with HeLa Kyoto [4] is -0.00566.
In the case of “MSLLLLLLLVSYYVGTLGTHTEIKRVAEEKVTLPCHHQLGLPEKDTLDIEWLLTDNEGNQKVVITYSSRHVYNNLTEEQKGRVAFASNFLAGDASLQIEPLKPSDEGRYTCKVKNSGRYVWSHVILKVLVRPSKPKCELEGELTEGSDLTLQCESSSGTEPIVYYWQRIREKEGEDERLPPKSRIDYNHPGRVLLQNLTMSYSGLYQCTAGNEAGKESCVVRVTVQYVQSIGMVAGAVTGIVAGALLIFLLVWLLIRRKDKERYEEEERPNEIREDAEAPKARLVKPSSSSSGSRSSRSGSSSTRSTANSASRSQRTLSTDAAPQPGLATQAYSLVGPEVRGSEPKKVHHANLTKAETTPSMIPSQSRAFQTV [CLMP]”, the melting temperature with HeLa Kyoto [1] (cell cycle stage: G1/S) is 55 °C; with HeLa Kyoto [1] (cell cycle stage: mitosis), 55.4 °C. The values for the thermal stability score with HeLa Kyoto [2] (setting [5]) and in the data set on HeLa Kyoto [2] (cell cycle stage: mitosis) were -1.13 and -0.751, respectively. The “solubility in G1/S (log2)” value with HeLa Kyoto [3] is 0.0444. Moreover, in the data set on HeLa Kyoto [4], the “solubility change mitosis (log2)” value is -0.0674.
